Consider one variant from IntAct's records for PubMed 19150989.

B1: BBSome complex member BBS1 (Homo sapiens), Q8NFJ9 (parent)
chain: MAAASSSDSDACGAESNEANSKWLDAHYDPMANIHTFSACLALADLHGDGEYKLVVGDLGPGGQQPRLKVLKGPLVMTESPLPALPAAAATFLMEQHEPRTPALALASGPCVYVYKNLRPYFKFSLPQLPPNPLEQDLWNQAKEDRIDPLTLKEMLESIRETAEEPLSIQSLRFLQLELSEMEAFVNQHKSNSIKRQTVITTMTTLKKNLADEDAVSCLVLGTENKELLVLDPEAFTILAKMSLPSVPVFLEVSGQFDVEFRLAAACRNGNIYILRRDSKHPKYCIELSAQPVGLIRVHKVLVVGSTQDSLHGFTHKGKKLWTVQMPAAILTMNLLEQHSRGLQAVMAGLANGEVRIYRDKALLNVIHTPDAVTSLCFGRYGREDNTLIMTTRGGGLIIKILKRTAVFVEGGSEVGPPPAQAMKLNVPRKTRLYVDQTLREREAGTAMHRAFQTDLYLLRLRAARAYLQALESSLSPLSTTAREPLKLHAVVQGLGPTFKLTLHLQNTSTTRPVLGLLVCFLYNEALYSLPRAFFKVPLLVPGLNYPLETFVESLSNKGISDIIKVLVLREGQSAPLLSAHVNMPGSEGLAAA

In this assay the parent is B1. As to conditions: with Lepr.
For the variant M390R, the “effect of a mutation on the interaction” value was “decreasing interaction”.
